Measurements published in paper PMC6717114 (Biochemical Journal, 2019).

Target: Mouse Pcdh15 EC1-2 wild-type (mouse, UniProt Q99PJ1-18 27-259)
Assay: single-molecule force spectroscopy

B1: Mouse Cdh23 EC1-2 wild-type (domain or fragment, UniProt Q99PF4 24-228, looked up)
chain: QVNRLPFFTNHFFDTYLLISEDTPVGSSVTQLLARDMDNDPLVFGVSGEEASRFFAVEPDTGVVWLRQPLDRETKSEFTVEFSVSDHQGVITRKVNIQVGDVNDNAPTFHNQPYSVRIPENTPVGTPIFIVNATDPDLGAGGSVLYSFQPPSPFFAIDSARGIVTVIQELDYEVTQAYQLTVNATDQDKTRPLSTLANLAIIITD
koff: 0.0045 s⁻¹
